In patent US20140193915, “COMPOSITIONS AND METHODS FOR CUSTOM SITE-SPECIFIC DNA RECOMBINASES” (Monsanto Technology, LLC, published 2014):

T1: sN-TALER IV-2 (GinH106Y-TALE13) (synthetic)
T1 chain: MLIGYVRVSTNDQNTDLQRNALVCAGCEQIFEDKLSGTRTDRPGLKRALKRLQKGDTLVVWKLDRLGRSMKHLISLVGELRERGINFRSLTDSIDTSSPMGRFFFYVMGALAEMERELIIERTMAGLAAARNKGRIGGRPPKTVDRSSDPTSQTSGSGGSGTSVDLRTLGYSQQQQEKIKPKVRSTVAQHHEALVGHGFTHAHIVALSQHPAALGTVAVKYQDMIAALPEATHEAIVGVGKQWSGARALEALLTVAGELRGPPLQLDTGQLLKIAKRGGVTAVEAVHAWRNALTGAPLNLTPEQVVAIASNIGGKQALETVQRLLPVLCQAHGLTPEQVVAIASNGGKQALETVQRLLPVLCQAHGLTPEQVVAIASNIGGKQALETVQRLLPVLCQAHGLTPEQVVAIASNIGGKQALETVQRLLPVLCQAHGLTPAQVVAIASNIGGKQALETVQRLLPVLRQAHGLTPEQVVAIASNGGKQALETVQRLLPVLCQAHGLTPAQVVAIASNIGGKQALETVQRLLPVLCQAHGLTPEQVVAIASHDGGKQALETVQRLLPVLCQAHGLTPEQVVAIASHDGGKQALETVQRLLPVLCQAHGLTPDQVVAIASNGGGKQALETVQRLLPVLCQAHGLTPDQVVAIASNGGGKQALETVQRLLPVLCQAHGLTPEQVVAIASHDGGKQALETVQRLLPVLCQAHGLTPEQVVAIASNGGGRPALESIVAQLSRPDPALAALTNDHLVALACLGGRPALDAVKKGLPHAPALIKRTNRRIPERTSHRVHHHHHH

T2: sN-TALER IV-3.2 (synthetic)
T2 chain: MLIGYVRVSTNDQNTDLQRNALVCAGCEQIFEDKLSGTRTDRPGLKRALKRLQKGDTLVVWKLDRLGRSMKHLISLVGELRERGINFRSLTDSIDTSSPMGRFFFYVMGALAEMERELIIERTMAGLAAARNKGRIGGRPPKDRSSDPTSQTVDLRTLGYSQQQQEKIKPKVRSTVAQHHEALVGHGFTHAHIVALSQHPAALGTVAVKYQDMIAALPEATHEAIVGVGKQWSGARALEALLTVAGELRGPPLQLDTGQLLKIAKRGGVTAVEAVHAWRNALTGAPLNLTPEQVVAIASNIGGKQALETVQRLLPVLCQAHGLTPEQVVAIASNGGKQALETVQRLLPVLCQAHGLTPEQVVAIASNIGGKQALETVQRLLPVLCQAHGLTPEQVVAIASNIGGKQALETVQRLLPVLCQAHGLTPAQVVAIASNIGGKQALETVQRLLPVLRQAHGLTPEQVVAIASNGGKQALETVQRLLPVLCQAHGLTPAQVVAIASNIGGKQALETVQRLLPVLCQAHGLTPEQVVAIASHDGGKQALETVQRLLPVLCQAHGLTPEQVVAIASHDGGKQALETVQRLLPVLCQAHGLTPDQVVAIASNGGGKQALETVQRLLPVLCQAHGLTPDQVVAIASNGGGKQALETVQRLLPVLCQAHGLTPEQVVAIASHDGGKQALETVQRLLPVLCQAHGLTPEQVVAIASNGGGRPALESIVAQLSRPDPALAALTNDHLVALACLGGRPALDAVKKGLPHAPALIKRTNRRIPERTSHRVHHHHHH


What was measured:
[1] = biological target: T1, sN-TALER IV-2 (GinH106Y-TALE13); experiment: cell_activity; E. coli; conditions: tags: 6-His
Method in brief: (§1)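 DH5alpha cells co-transformed (heat shock or electroporation) with N-TALER expression and reporter plasmids at ~1:1 mass ratio; reporter alone as control. Plated on chloramphenicol/kanamycin/X-gal, grown 37° C. for 18 to 36 hours; recombination scored by colony colour.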

[2] = biological target: T2, sN-TALER IV-3.2; experiment: cell_activity; E. coli; conditions: tags: 6-His
Method in brief: as §1

Binder | activity [1] | activity [2]
Gin20TALE+0 (dsDNA) DNA 1: AGAAGGTATTTATATCCAAAACCATGGTTTACAGTATAAATACCTTCT DNA 2: AGAAGGTATTTATACTGTAAACCATGGTTTTGGATATAAATACCTTCT | 1 score | 1 score
Gin18TALE+0 (dsDNA) DNA 1: AGAAGGTATTTATACCAAAACCATGGTTTACATATAAATACCTTCT DNA 2: AGAAGGTATTTATATGTAAACCATGGTTTTGGTATAAATACCTTCT | 1 score | 3 score
